Measurements reported in patent publication US20240182536A1 (MURAL ONCOLOGY, published 2024).

T1: IL-18 receptors on HEK-Blue IL-18 reporter cells (UniProt Q13478 19-541; O95256 20-599, limits assumed)
T1 sequence (looked up) 1: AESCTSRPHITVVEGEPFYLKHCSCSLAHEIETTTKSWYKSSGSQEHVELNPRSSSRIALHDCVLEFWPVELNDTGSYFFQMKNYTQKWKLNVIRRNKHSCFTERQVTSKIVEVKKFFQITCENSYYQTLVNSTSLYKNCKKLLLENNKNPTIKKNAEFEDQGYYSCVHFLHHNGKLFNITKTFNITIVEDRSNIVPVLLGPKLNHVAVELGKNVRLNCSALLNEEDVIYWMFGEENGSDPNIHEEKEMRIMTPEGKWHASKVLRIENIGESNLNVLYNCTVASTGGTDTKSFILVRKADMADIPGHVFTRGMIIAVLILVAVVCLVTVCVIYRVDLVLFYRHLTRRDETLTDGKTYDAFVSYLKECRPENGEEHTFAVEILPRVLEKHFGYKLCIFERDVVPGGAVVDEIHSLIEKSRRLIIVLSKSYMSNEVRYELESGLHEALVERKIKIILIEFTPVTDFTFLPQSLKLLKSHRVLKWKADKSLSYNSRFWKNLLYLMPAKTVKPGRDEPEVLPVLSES
T1 sequence (looked up) 2: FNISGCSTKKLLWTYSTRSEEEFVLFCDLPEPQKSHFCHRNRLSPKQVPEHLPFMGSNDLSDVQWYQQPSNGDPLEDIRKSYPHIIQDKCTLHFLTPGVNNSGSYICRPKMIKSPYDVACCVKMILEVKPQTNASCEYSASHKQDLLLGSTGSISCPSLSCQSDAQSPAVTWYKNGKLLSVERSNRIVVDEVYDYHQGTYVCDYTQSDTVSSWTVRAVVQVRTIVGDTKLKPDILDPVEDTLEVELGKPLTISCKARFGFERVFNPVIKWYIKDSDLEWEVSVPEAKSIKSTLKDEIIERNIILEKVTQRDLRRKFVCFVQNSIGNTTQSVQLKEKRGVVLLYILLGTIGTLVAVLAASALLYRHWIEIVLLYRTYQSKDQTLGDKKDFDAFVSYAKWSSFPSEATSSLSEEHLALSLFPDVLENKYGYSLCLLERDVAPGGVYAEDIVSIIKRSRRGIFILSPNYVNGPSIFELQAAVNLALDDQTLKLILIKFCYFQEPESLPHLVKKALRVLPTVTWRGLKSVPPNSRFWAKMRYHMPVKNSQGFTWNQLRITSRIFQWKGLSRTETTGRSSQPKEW

T2: human IL-18 binding protein (human, UniProt O95998 31-194)
T2 sequence (looked up): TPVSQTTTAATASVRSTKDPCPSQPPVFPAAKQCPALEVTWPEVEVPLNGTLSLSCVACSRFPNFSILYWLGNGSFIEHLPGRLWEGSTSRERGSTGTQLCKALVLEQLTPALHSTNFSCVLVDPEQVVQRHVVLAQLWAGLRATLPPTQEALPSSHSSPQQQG


Key:
[1] = target: T1, IL-18 receptors on HEK-Blue IL-18 …; assay: cell-based or functional assay
[2] = target: T2, human IL-18 binding protein; assay: cell-based or functional assay

| Binder | HEK-blue EC50 (pM) - IL-18BP [1] [pM] | HEK-blue EC50 (pM) + 300 nM IL-18BP [2] [pM] |
| --- | --- | --- |
| G3T/M60K-monospecific KiH (Fc fusion) YFTKLESKLSVIRNLNDQVLFIDQGNRPLFEDMTDSDMRDNAPRTIFIISMYKDSQPRGKAVTISVKSEKISTLSSENKIISFKEMNPPDNIKDTKSDIIFFQRSVPGHDNKMQFESSSYEGYFLASEKERDLFKLILKKEDELGDRSIMFTVQNED | 0.27 | 2.64 |
| G3V/M60K-monospecific KiH (Fc fusion) YFVKLESKLSVIRNLNDQVLFIDQGNRPLFEDMTDSDMRDNAPRTIFIISMYKDSQPRGKAVTISVKSEKISTLSSENKIISFKEMNPPDNIKDTKSDIIFFQRSVPGHDNKMQFESSSYEGYFLASEKERDLFKLILKKEDELGDRSIMFTVQNED | 0.06 | 2.01 |
| G3T/E6K/K53A-monospecific KiH (Fc fusion) YFTKLKSKLSVIRNLNDQVLFIDQGNRPLFEDMTDSDMRDNAPRTIFIISMYADSQPRGMAVTISVKSEKISTLSSENKIISFKEMNPPDNIKDTKSDIIFFQRSVPGHDNKMQFESSSYEGYFLASEKERDLFKLILKKEDELGDRSIMFTVQNED | 0.04 | 1.16 |
